{"source": "the nanobody polyreactivity screen of Harvey et al. (2022)", "test": "yeast display, Sf9 membrane polyspecificity reagent, FACS + sequencing; frameworks hold sequencing errors", "summary_of_the_method": "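Synthetic nanobody libraries on Saccharomyces cerevisiae BJ5465 were galactose-induced for 36–48 hours, stained 1 hour at 4 °C with 10% biotinylated, detergent-solubilized Sf9 membrane reagent and enriched on streptavidin microbeads. FACS then separated cells into low and high (top ~1%) gates by anti-HA (expression) and streptavidin (reagent binding) fluorescence. Genes were colony-PCR amplified, MiSeq 2 × 250 sequenced and CDR-length filtered. A clone's polyreactivity label is that of its gate of origin.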", "data": [{"sequence": "QVQLVESGGGLVQAGGSLRLSCAASGSIFWPNAMGWYRQAPGKERELVAAISRGGSTNYADSVKGRFTISRDNAKNTVYLQMNSLKPEDTAVYYCATDAYYYNLLYLFPRYDYWGQGTQVTVSS", "values": [{"measurement": "polyreactivity (PSR sort gate)", "value": "low polyreactivity"}]}, {"sequence": "QVQLVESGGGLVQAGGSLRLSCAASGSIFWPYAMGWYRQAPGKEREFVAAITWSGGSTYYADSVKGRFTISRDNAKNTVYLQMNSLKPEDTAVYYCAAEITWYYHDFGYWGQGTQVTVSS", "values": [{"measurement": "polyreactivity (PSR sort gate)", "value": "high polyreactivity"}]}, {"sequence": "QVQLVESGGGLVQAGGSLRLSCAASGSIFWPYTMGWSRQAPGKECELVAAITSTDSTDYADSVKGRFTISRDNAKNTVYLQMNSLKPEDTAVYYCNADYQSRTGSGIYTDHPYDYWGQGTQVTVSS", "values": [{"measurement": "polyreactivity (PSR sort gate)", "value": "low polyreactivity"}]}, {"sequence": "QVQLVESGGGLVQAGGSLRLSCAASGSIFWQYAMGWYRQAPGKERELVAAINWSGDTTYYADSVKGRFTISRDNAKNTVYLQMNSLKPEDTAVYYCAAVGGVSFGGSPKTHAGEDYWGQGTQVTVSS", "values": [{"measurement": "polyreactivity (PSR sort gate)", "value": "low polyreactivity"}]}, {"sequence": "QVQLVESGGGLVQAGGSLRLSCAASGSIFWRNAMGWYRQAPGKEREFVAAISARGGSTYYADSVKGRFTISRDNAKNTVYLQMNSLKPEDSAVYDCAASWGLGTYSDSTYWGGYYYWGQGTQVTVSS", "values": [{"measurement": "polyreactivity (PSR sort gate)", "value": "low polyreactivity"}]}, {"sequence": "QVQLVESGGGLVQAGGSLRLSCAASGSIFWRNAMGWYRQAPGKERELVAAISGNGGTTYYADSVKGRFTISRDNAKNTVYLQMNSLKPEDTAVYYCAKVGKTYRTYEYWGQGTQVTVSS", "values": [{"measurement": "polyreactivity (PSR sort gate)", "value": "high polyreactivity"}]}, {"sequence": "QVQLVESGGGLVQAGGSLRLSCAASGSIFWRYAMGWYRQAPGKERELVAAIDVSGATTYYADSVKGRFTISRDNAKNTVYLQMNSLKPEDTAVYYCATYATNSVAAYDYWGQGTQVTVSS", "values": [{"measurement": "polyreactivity (PSR sort gate)", "value": "low polyreactivity"}]}, {"sequence": "QVQLVESGGGLVQAGGSLRLSCAASGSIFWRYAMGWYRQAPGKERELVAVISDRGGITYYADSVKGRFTISRDNAKNTVYLQMNSLKPEDTAVYYCNAVDSDRSDPSEYDYWGQGTQVTVSS", "values": [{"measurement": "polyreactivity (PSR sort gate)", "value": "low polyreactivity"}]}, {"sequence": "QVQLVESGGGLVQAGGSLRLSCAASGSIFWSNARGWYRQAPGKERELVATIDDDVGSTYYADSVKGRFTISRDNAKNTVYLQMNSLKPEDTAVYYCAADSVYYVMPYEYWGQGTQVTVSS", "values": [{"measurement": "polyreactivity (PSR sort gate)", "value": "low polyreactivity"}]}, {"sequence": "QVQLVESGGGLVQAGGSLRLSCAASGSIFWSYAMGWYRQAPGKEREFVASITGSGGTTTYADSVKGRFTISRDNAKNTVYLQMNSLKPEDTAVYYCNARLHGWYHVYYIYDYWGQGTQVTVSS", "values": [{"measurement": "polyreactivity (PSR sort gate)", "value": "low polyreactivity"}]}, {"sequence": "QVQLVESGGGLVQAGGSLRLSCAASGSIFWTKAMGWYRQAPGKERELVARITYSGGSTYYADSVKGRFTISRDNAKNTVYLQMNSLKPEDTAVYYCNARTHGWPYSRYYYWGQGTQVTVSS", "values": [{"measurement": "polyreactivity (PSR sort gate)", "value": "high polyreactivity"}]}, {"sequence": "QVQLVESGGGLVQAGGSLRLSCAASGSIFWVNGMGWYRQAPGKERELVAAITWSGGSTYYADSVKGRFTISRDNAKNTVYLQMNSLKPEDTAVYYCAAYCQYYLWDGYGYWGQGTQVTVSS", "values": [{"measurement": "polyreactivity (PSR sort gate)", "value": "low polyreactivity"}]}, {"sequence": "QVQLVESGGGLVQAGGSLRLSCAASGSIFWVYAMGWYRQAPGKERELVAAISSSGGRTYYADSVKGRFTISRDNAKNTVYLQMNSLKPEDTAVYYCASRWKTGYNYWGQGTQVTVSS", "values": [{"measurement": "polyreactivity (PSR sort gate)", "value": "high polyreactivity"}]}, {"sequence": "QVQLVESGGGLVQAGGSLRLSCAASGSIFWVYAMGWYRQAPGKERELVADISRSGGSTYYADSVKGRFTISRDNAKNTVYLQMNSLKPEDTAVYYCAAEYYGQVLFQPYVYQLMYYWGQGTQVTVSS", "values": [{"measurement": "polyreactivity (PSR sort gate)", "value": "low polyreactivity"}]}, {"sequence": "QVQLVESGGGLVQAGGSLRLSCAASGSIFWWYAMGWYRPAPGKERELVAAISGRGGNTYYADSVKGRFTISRDNAKNTVYLQMNSLKPEDTAVYYCNADDTKYPYYTDDYWGQGTQVTVSS", "values": [{"measurement": "polyreactivity (PSR sort gate)", "value": "low polyreactivity"}]}, {"sequence": "QVQLVESGGGLVQAGGSLRLSCAASGSIFWYNAMGWYRQAPGKERELVAAIDRSGGNTYYADSVKGRFTISRDNAKNTVYLQMNSLKPEDTAVYYCARRIGRTYRYVYWGQGTQVTVSS", "values": [{"measurement": "polyreactivity (PSR sort gate)", "value": "high polyreactivity"}]}, {"sequence": "QVQLVESGGGLVQAGGSLRLSCAASGSIFWYNAMGWYRQAPGKERELVAAIRWRGGSTYYADSVKGRFTISRDNAKNTVYLQMNSLKPEDTAVYYCARDRYYRTLGYGYWGQGTQVNVSS", "values": [{"measurement": "polyreactivity (PSR sort gate)", "value": "high polyreactivity"}]}]}
